Measured values published in patent publication CN113512118A.

Target: sCD146蛋白 (CD146胞外区蛋白, Sino Biological 10115-H08H-20) (human) (UniProt P43121)
Assay: BLI (Octet Red96), against parental AA98

UniProt P43121, sequence (P43121 24-559): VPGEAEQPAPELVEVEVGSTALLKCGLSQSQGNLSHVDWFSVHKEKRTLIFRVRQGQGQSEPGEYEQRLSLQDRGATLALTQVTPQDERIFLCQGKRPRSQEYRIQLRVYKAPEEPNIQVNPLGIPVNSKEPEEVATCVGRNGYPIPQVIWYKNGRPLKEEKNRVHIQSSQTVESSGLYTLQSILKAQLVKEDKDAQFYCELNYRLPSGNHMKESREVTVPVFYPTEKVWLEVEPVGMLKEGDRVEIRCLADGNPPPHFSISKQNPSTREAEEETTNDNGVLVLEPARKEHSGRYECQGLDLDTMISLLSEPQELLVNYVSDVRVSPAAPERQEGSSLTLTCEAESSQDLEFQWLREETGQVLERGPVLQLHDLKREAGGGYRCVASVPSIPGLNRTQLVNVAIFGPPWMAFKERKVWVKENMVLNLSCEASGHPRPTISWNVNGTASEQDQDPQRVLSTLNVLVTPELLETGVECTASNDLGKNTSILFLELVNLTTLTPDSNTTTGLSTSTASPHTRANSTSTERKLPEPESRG

fold increase of affinity against AA98: 10 fold
Substance: H13-112抗体 (AA98 variant, heavy chain I28K and light chain L51Y) (antibody)
